Reference: patent US20230235047A1 (Innovent, published 2023)

What was measured:
[1] = target: T1, human CLDN18.1 on cells (CHO-hCLDN18.1) (human, UniProt P56856 1-261); assay: flow cytometry (FACS) on CHO-hCLDN18.1 cells
T1 construct: whole, on cells; also called human Claudin18.1
Protocol: (§1) The binding of each of the above 9 antibodies to the CHO-S cell lines stably transfected with human CLDN18.2 and human CLDN18.1 (i.e., CHO-hCLDN18.2 and CHO-hCLDN18.1 prepared as described in the Examples) obtained in Example 1 was determined by flow cytometry (FACS). Reference was made to Example 2 for the experimental methods. The experimental data were analyzed using GraphPad Prism software, and FIGS. 1 and 2 were obtained.

[2] = target: T2, human Claudin18.2 protein (P50251802, GenScript) (human, UniProt P56856-2 1-261, limits assumed); assay: BLI (Fortebio Octet Red96), AHC sensor, antibody and human Claudin18.2 protein (GenScript)
T2 construct: also called human CLDN18.2
Protocol: The equilibrium dissociation constant (KD) for binding of the antibodies of the present invention to human CLDN18.2 was determined by bio-layer interferometry (BLI). A BLI affinity assay was conducted according to the existing method (Estep, P et al., High throughput solution based measurement of antibody-antigen affinity and epitope binding. MAbs, 2013.5(2): p. 270-8). The AHC (18-5060, Fortebio) sensor was soaked in SD buffer (lx PBS, BSA 0.1%, Tween-20 0.05%). 100 μL of SD buffer, each antibody and human Claudin18.2 protein (P50251802, GenScript) were added to a 96-well black polystyrene half-area microplate (Greiner, 675076), respectively. The detection was performed using Fortebio Octet Red96, and the KD values were analyzed using Fortebio Octet analysis software.

[3] = target: T3, human CLDN18.2 on cells (CHO-hCLDN18.2, HEK293-hCLDN18.2, KATO III-hCLDN18.2, DAN-G-hCLDN18.2, NUGC-4) (human, UniProt P56856-2 1-261); assay: flow cytometry (FACS) on CHO-hCLDN18.2 cells, MFI against Log[Conc.(nM)]; EC50 from the table under the plot
T3 construct: whole, on cells; NUGC-4 is used untransfected; also called human Claudin18.2
Protocol: as §1

[4] = target: T2, human Claudin18.2 protein (P50251802, …); assay: SPR (Biacore T200), human Claudin18.2 amine-coupled to the chip, antibody 0-100 nM in the mobile phase, 1:1 model
Protocol: According to the manufacturer's instructions, human Claudin18.2 (GenScrip, P50251802) was coupled to the surface of a CMS chip (GE Healthcare, 29-1496-03) using the amino coupling kit (GE Healthcare, BR-1006-33), and the remaining activation sites were blocked by injection of 1 M ethanolamine after coupling. According to the manufacturer's instructions, the binding and dissociation between the antigen on the chip surface and antibodies in the mobile phase were determined by Biacore (GE Healthcare, T200) to obtain affinity and kinetic constants. The antibodies (0-100 nM) after gradient dilution flowed over the chip surface in an order from low to high concentrations, with the binding time of 180 s and the dissociation time of 600 s. Finally, the chip was regenerated using 10 mM Glycine pH 1.5 (GE Healthcare, BR-1003-54). Kinetic analysis of the data results were performed using Biacore T200 analysis software with a 1:1 binding model.

[5] = target: T3, human CLDN18.2 on cells (CHO-hCLDN18.2, …); assay: flow cytometry (FACS) on DAN-G-hCLDN18.2 cells, MFI against Log[Conc (nM)]; EC50 from the table under the plot
Protocol: (§2) Referring to Example 4, the binding of the two antibodies to each of the gastric cancer cell line NUGC-4, the gastric cancer cell line KATO III-hCLDN18.2 and the pancreatic cancer cell line DAN-G-hCLDN18.2 was determined by FACS.

[6] = target: T3, human CLDN18.2 on cells (CHO-hCLDN18.2, …); assay: flow cytometry (FACS) on KATO III-hCLDN18.2 cells, MFI against Log[Conc(nM)]; EC50 from the table under the plot
Protocol: as §2

[7] = target: T3, human CLDN18.2 on cells (CHO-hCLDN18.2, …); assay: flow cytometry (FACS) on the gastric cancer cell line NUGC-4, MFI against Log[Conc(nM)]; EC50 from the table under the plot
Protocol: as §2

[8] = target: T3, human CLDN18.2 on cells (CHO-hCLDN18.2, …); assay: flow cytometry (FACS) on CHO-hCLDN18.2 cells, MFI against Log[Conc.(nM)]; EC50 from the table under the plot; remark: listed apart in the source
Protocol: as §1

[9] = target: T3, human CLDN18.2 on cells (CHO-hCLDN18.2, …); assay: as above; remark: listed apart in the source
Protocol: as §1

Binder	binding result [1]	Kd [2] [nM]	EC50 [3] [nM]	Kd [4] [nM]	koff [4] [s⁻¹]	kon [4] [M⁻¹ s⁻¹]	EC50 [5] [nM]	EC50 [6] [nM]	EC50 [7] [nM]	EC50 [8] [nM]	EC50 [9] [nM]
14A5 (antibody, human IgG1, kappa, V domains shown) VH: QVQLKESGPGLVAPSQSLSITCSVSGFSLNSYGVGWVRQPPGKGLEWLGVIWGDGSTNYHSVLISRLSIRKDNSKSQVFLKLNSLQTDDTATYYCAMITRGNAMDYWGQGTSVTVSS VL: DIVMTQSPSSLTVTAGEKITMSCKSSQSLLNSGNQRNYLTWYQQKPGQTPKLLIYWASTRKSGVPDRFTGSGSGTDFTLTISSVQAEDLAVYSCQNNYLFPLTFGAGTKLELKR	no binding	0.529	5.49								
Hz69H9 (antibody, human IgG1, kappa, V domains shown) VH: QVQLVQSGAEVKKPGSSVKVSCKASGYSFSSYNIHWVRQAPGQGLEWMGYIAPFQGDSRYNQKFKGRVTITADKSTSTAYMELSSLRSEDTAVYYCARLNRGNSLDYWGQGTLVTVSS VL: DIVMTQSPDSLAVSLGERATINCKSSQSLFNSGNQRNYLTWYQQKPGQPPKLLIYWASTRESGVPDRFSGSGSGTDFTLTISSLQAEDVAVYYCQNNYIYPLTFGGGTKVEIKR				0.299	0.000116	387000	1.79	3.25	2.2		
Positive control antibody Zmab (zolbetuximab) (antibody, human IgG1, kappa, V domains shown) VH: QVQLQQPGAELVRPGASVKLSCKASGYTFTSYWINWVKQRPGQGLEWIGNIYPSDSYTNYNQKFKDKATLTVDKSSSTAYMQLSSPTSEDSAVYYCTRSWRGNSFDYWGQGTTLTVSS VL: DIVMTQSPSSLTVTAGEKVTMSCKSSQSLLNSGNQKNYLTWYQQKPGQPPKLLIYWASTRESGVPDRFTGSGSGTDFTLTISSVQAEDLAVYYCQNDYSYPFTFGSGTKLEIKR		2.14	3.46							3.12	3.31
59C1 (antibody, human IgG1, kappa, V domains shown) VH: QVQLKESGPDLVKPSQSLSLTCTVTGYSITSGYGWNWIRQFPGNKLEWMGYIHFSGSTNYNPSLKSRISITRDTSKNQFFLQLNSVTTEDTATYYCARSGKGNAMDYWGQGTSVTVSS VL: DIQMTQSPSSLTVTAGEKVTMSCKSSQSLLNSGNQKNYLTWYQQKPGQPPKLLIYWASTRESGVPDRFTGSGSGTDFTLTVINMQAEDLALYYCQNDYYFPFTFGSGTKLEIKR	no binding	1.01	5.7								
25C7 (antibody, human IgG1, kappa, V domains shown) VH: EVMLVESGGGLVQPGGSRKLSCAASGFTFSDYGMAWVRQAPGKGPEWVAFINNLAYSIYYVDTVTGRFTISRENAKDTLYLEMSSLRSEDTALYYCARFTTGNVMDYWGQGTSVTVSS VL: DIVMTQSPSSLTVTAGEKVTMTCKSSQSLLNGGNQKNYLTWYQQKPGQPPKLLIYWSSTRESGVPDRFTGSGSGTDFTLTITSVQAEDLAVYYCQNSYSYPLTFGSGTKLELKR	no binding	1.46	13.6								
69H9 (antibody, human IgG1, kappa, V domains shown) VH: EVQLQQSGPELMKPGASVKISCKATGYSFSSYNIHWVKQSHGKSLEWIGYIAPFNGDSRYNQKFKGKATVTVDKSSSTAYMHLSSLTSEDSAVYYCGRLNRGNSLDYWGQGTSLTVSS VL: DIVMTQSPSSLTVTAGEKVTMSCKSSQSLFNSGNQRNYLTWYQQKPGQPPKLLIYWASTRESGVPDRFTGSGSGTDFTLTISSVQAEDLAFYYCQNNYIYPLTFGAGTKLELKR	no binding	0.946								5.36	

More lines, now with the values ahead:

binding result [1]	Kd [2] [nM]	EC50 [3] [nM]	Kd [4] [nM]	koff [4] [s⁻¹]	kon [4] [M⁻¹ s⁻¹]	EC50 [5] [nM]	EC50 [6] [nM]	EC50 [7] [nM]	EC50 [8] [nM]	EC50 [9] [nM]	Binder
no binding	1.03									5.88	38F8 (antibody, human IgG1, kappa, V domains shown) VH: EVQLVESGGGLVKPGGSLKLSCAASGFSFSDYGMHWVRQAPEKGLEWIAYINSGSRTLYYADTVKGRFTISRDNAKNTLFLQMTSLRSEETAMYYCTRNAYYGNAMDYWGQGTSVTVSS VL: DIQMTQSPSSLTVTAGEKVTMSCKSSQSLLNSGNQRNYLTWYQQIPGQPPKLLIYWSSTRGSGVPDRFTGSGSGTDFTLTISSVQAEDLAVYFCQNVYYYPFTFGSGTRLEVKR
no binding	2.8	9.75									3G3 (antibody, human IgG1, kappa, V domains shown) VH: QVQLQQSGPQLVRPGASVKISCKASGYSFTTYWMHWVKQRPGQGLEWIGLIDPSDSETRLNQKFKDKATLTVDKSSSTAYMRLSSPTSEDSAVYYCASNRWLLGWGQGTLVTVSS VL: DIQMIQSPSSLTVTAGEKVTMSCKSSQSLLNSGNQKNYLTWYQQKPGQPPKLLIYWASTRESGVPDRFTGSGSGTDFTLTISSVQTEDLAVYYCQNDYSYPLTFGAGTKLEIKR
no binding	0.326		0.72	0.000306	425000	0.958	0.569	1.08		5.51	HB37A6 (fully human antibody) (antibody, human IgG1, kappa, V domains shown) VH: EVQLLDSGGGLVQPGGSLRLSCAASGFTFSSYVMSWVRQAPGKGLNWVSTISHSGGSTYYADSVKGRFTISRDNSKNTLYLQMNSLRAEDTAVYYCAIDAPYYDILTGYRYWGQGTLVTVSS VL: not shown
no binding	0.732								5.41		46F6 (antibody, human IgG1, kappa, V domains shown) VH: QVQLKESGPGLVAPSQSLSITCTVSGFSLTDYGVSWIRQPPGKGLEWLGVMWGGGNTYYNSALKSRLSISKDNSKSQVFLKMNSLQSDDTAMYYCAKQRYGGNAMDYWGQGTSVTVSS VL: DIQMTQSPSSLTVTAGEKVTMSCKSSQSLLNSGNQRNYLTWYQQIPGQPPKLLIYWASTRESGVPNRFTGSGSGAEFTLTISSVQTEDLAVYYCQNSYFYPFTFGAGTKLELKR
